B1: S15 glycoprotein (15 kDa sporozoite surface protein of Cryptosporidium parvum) (other)
chain: SEETSEAAATVDLFAFTLDGGKRIEVAVPNVEDASKRDKYSLVADDKPFYTGANSGTTNGVYRLNENGDLVDKDNTVLLKDAG
modifications: glycosylated (labelled by H. pomatia lectin); glycosyl phosphatidyl inositol anchor predicted at the C-terminal glycine (residue 305 of S60)
notes: Native protein from sporozoites/oocysts, on blots after SDS-PAGE; also called 15 kDa protein band; 15 kDa protein

Tests used:
[1] = target: T1, Canavalia ensiformis lectin (Con A) (Canavalia ensiformis, UniProt P02866 30-281, limits assumed, biotin-conjugated); assay: lectin blot after SDS-PAGE of sporozoite surface proteins
[2] = target: B1; assay: co-fractionation: Triton X-114 phase separation, isoelectric focusing
[3] = target: T1, Canavalia ensiformis lectin (Con A); assay: lectin Western blot of Triton X-114 fractionated sporozoite proteins
Experimental: Excysted oocysts or purified sporozoites were resuspended to 1×10⁹ cells/ml in ice-cold TBS (10 mM Tris, pH 8.0, 140 mM NaCl) containing a protease inhibitor mixture of 50 μM leupeptin (Sigma),.10 μM E-64 (Sigma), 1 mM phenylmethylsulfonylfluoride (Sigma). […] Lysates were then centrifuged (100,000×g for 1 h at 4° C.) and the supernatant warmed for 3 minutes to 37° C. to induce phase separation. The water phase and the membrane protein enriched detergent phase were separated by centrifugation and each phase reextracted once. The phases were adjusted to the original volume and proteins precipitated by adding 1/10 volume of ice cold 100% (w/v) trichloroacetic acid. After 30 minutes precipitates were pelleted by centrifugation and washed twice in 70% (v/v) ice-cold ethanol and once with acetone. Pellets were then air dried and redissolved in 1-D or 2-D sample buffer for electrophoretic analysis.
For lectin analysis, membranes blocked with 1% (w/v) BSA in PBS were incubated for 1 h with biotin-conjugated lectins (Sigma) in BSA/PBS and a further 3 h with 1:10,000 alkaline-phosphatase-conjugated ExtrAvidin in PBS. […] Membranes were developed in 1 M diethanolamine, pH 9.8, containing 1 mM MgCl₂, 0.5 mM 5-bromo-4-chloro-3-indolyl phosphate and 0.5 mM nitroblue tetrazolium.

Binder | binding result [1] | binding result [2] | binding result [3]
S45 glycoprotein (45 kDa sporozoite surface protein of Cryptosporidium parvum) (other, long stretch of serine residues after DVPVEG glycosylated with single residues of alpha N-acetyl galactosamine (first serine only partially); residues 180, 186 and 188 (S60 numbering) thought to be modified lysines, Native protein from sporozoites/oocysts; also called 45 kDa protein; 45 kDa band) DVPVEGSSSSSSSSSSSSSSSSSSSSSTSTVAPANKARTGEDAEGSQDSSGTEASGSQGSEEEGSEDDGQTSAASQPTTPAQSEGATTETIEATPKEECGTSFVMWFGEGTPAATLKCGAYTIVYAPIKDQTDPAPRYISGEVTSVTFEKSDNTVKIKVNGQDFSTLSANSSSPTENGGSAGQASSR | no binding | binds | –
B1 | no binding | – | –
S30 (minor sporozoite protein, proteolytic degradation product of S45) (other) TGEDAEGSQDSSGTEASGSQGSEEEGSEDDGQTSAASQPTTPAQSEGATTETIEATPKEECGTSFVMWFGEGTPAATLKCGAYTIVYAPIKDQTDPAPRYISGEVTSVTFEKSDNTVKIKVNGQDFSTLSANSSSPTENGGSAGQASSR | – | – | no binding

— patent US20030185836A1 (published 2003)
